The results in this text go back to patent US7655771B1, “Polymorphisms in the human cyp3a4 and cyp3a7 genes and their use in diagnostic and therapeutic applications” (PGx Health, LLC, priority 1999, dated 2010).

Marks after values point to notes of the source that are not given here. Some results are limits rather than exact numbers.

In data set [1] the target is T1, CYP3A4 (Homo sapiens, UniProt P08684, T363M).
T1 construct: made in house; host or cells: E. coli TOPP3
As to the kind of experiment: Progesterone hydroxylase activity of wild-type and mutant CYP3A4 proteins. It is filed as biochemical. Conditions: Table 6. On the procedure:
(§1) Mutants were expressed in E. coli TOPP3 cells. Cultures of each strain were started from single colonies in 2-ml of LB media containing ampicillin (50 μg/ml) and tetracycline (15 μg/ml) and grown overnight at 37° C. with shaking. Larger, 20-ml cultures of each sample were inoculated and grown as described for the 2-ml cultures. Starter cultures (15 ml) were inoculated into 250-ml of TB media containing ampicillin (50 μg/ml) and grown 2-3 hr at 37° C. at 250 rpm. δ-aminolevulinic acid (80 mg/L) and IPTG (1 mM) were added and the cultures grown 72 hr at 30° C. at 190 rpm. The cells were harvested, sonicated and CHAPS solubilized, and the protein was purified on Talon Metal Affinity resin from Clontech (Palo Alto, Calif.). Final P450 content was measured by reduced CO difference spectra (Omura, J Biol Chem 239 (1964), 2370-2378), and each protein was visualized on an 8.5% SDS PAGE gel stained with Coomassie blue. Western Blot analysis of CYP3A4 wild-type, M2, M5 and M7 was performed by resolving 1 pmol of 3A4 wildtype and M5, and 8 μl of M2 and M7 total protein sample on an 8.5% SDS PAGE gel. The samples were then transferred to nitrocellulose and probed with an anti-3A12 polyclonal antibody known to cross-react with CYP3A4 (Ciaccio, Arch Biochem Biophys 271 (1989), 284-99).
(§2) Following the reconstitution with NADPH-cytochrome P450 reductase and cytochrome b5, the catalytical activities of M1, M4, M5 and M6 variants were measured using testosterone, progesterone and 7-BFC as substrates (Tables 5-7).

The subject of data set [2] is CYP3A4. The description is as above. It is filed as biochemical, human. The procedure:
as §1, §2

Data set [3] has as its target T1, CYP3A4. Nature of the data set: 7-Benzyloxy-4-(trifluoromethyl)coumarin (7-BFC) debenzylase activity of wild-type and mutant CYP3A4 proteins. Conditions: Table 7. In kind it is biochemical. The procedure:
as §1, §2

For data set [4], the system named is CYP3A4. Described as above. In kind it is biochemical, human. Conditions: substrate 7-BFC. The procedure: as §1, §2
A further data set concerns CYP3A4 holoenzyme. Nature of the data set: Expression of CYP3A4 holoenzyme in E. coli, reduced CO difference spectra. Also noted: species or system human. The procedure: as §1
The effect of the protein variants on the expression level and catalytical activity of CYP3A4 was investigated using a bacterial CYP3A4 expression system. Sequence variants were introduced into the pSE3A4H expression vector (Harlow, J Biol Chem 272 (1997), 5396-402) which encodes for a CYP3A4 protein identical to that found in most Caucasians. No other, unwanted mutations were introduced into the CYP3A4 insert or the promoter driving its expression as confirmed by sequencing. Mutants M1-M8 were expressed in E. coli as described in Example 5, the expression of the CYP3A4 holoenzyme assessed by measuring reduced CO difference spectra, and the protein purified. All but M2, M5 and M7 mutants were detectable at levels similar to CYP3A4. […] The expression of M2, M5, and M7 was further investigated by Western Blotting using an anti-CYP3A12 polyclonal antibody known to cross-react with CYP3A4 (Ciaccio, Arch Biochem Biophys 271 (1989), 284-99) as described in Example 5.

Data set [5] concerns the target T1, CYP3A4. Nature of the data set: Testosterone hydroxylase activity of wild-type and mutant CYP3A4 proteins (reconstituted with NADPH-cytochrome P450 reductase and cytochrome b5). The settings on record: Table 5. It is filed as biochemical. On the procedure:
as §1, §2

In data set [6] the test system is CYP3A4. The data set is described as above. In kind it is biochemical, human. On the procedure: as §1, §2

T1 sequence (P08684 2-503 T363M): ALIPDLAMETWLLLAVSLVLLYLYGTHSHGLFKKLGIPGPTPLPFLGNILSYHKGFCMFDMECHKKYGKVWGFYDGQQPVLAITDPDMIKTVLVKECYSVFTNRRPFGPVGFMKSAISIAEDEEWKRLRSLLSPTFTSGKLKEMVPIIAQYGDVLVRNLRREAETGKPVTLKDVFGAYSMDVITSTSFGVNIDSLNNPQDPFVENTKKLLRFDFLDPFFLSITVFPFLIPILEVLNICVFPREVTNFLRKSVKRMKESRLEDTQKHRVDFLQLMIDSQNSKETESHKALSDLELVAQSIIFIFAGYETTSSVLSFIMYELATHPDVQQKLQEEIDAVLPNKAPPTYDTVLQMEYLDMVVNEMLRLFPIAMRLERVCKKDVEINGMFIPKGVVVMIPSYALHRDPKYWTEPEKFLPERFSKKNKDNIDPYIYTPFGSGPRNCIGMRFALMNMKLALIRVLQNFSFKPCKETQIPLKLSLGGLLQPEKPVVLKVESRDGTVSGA

As for “M5: CYP3A4 protein variant T363M (g.21867C>T, exon 11) [Mutant M5]”, in the data set with CYP3A4 [1], the “Progesterone hydroxylase activity compared with wild-type protein, in words” value is on record as “approximately half that of wild-type protein”. Moreover, in the data set on CYP3A4 [2] (25 μM progesterone), the “Progesterone hydroxylase 6β/16α ratio” value is 9.8; the “Progesterone hydroxylase activity, 6β-OH” value is reported as 5.9^c nmol product/min/nmol protein; the “Progesterone hydroxylase activity, 16α-OH” value is 0.6 nmol product/min/nmol protein. In the data set with CYP3A4 [2] (150 μM progesterone), the “Progesterone hydroxylase 6β/16α ratio” value was found to be 5.4; the “Progesterone hydroxylase activity, 6β-OH” value is given as 16.6^c nmol product/min/nmol protein; the “Progesterone hydroxylase activity, 16α-OH” value is 3.1 nmol product/min/nmol protein. The “7-BFC debenzylase activity compared with wild-type protein, in words” value with CYP3A4 [3] is “approximately half that of wild-type protein”. The “7-BFC debenzylase activity, 7-hydroxy-4-(trifluoromethyl)coumarin” value in the data set on CYP3A4 [4] is given as 2.9^c nmol product/min/nmol protein. For the same substance, in the data set with CYP3A4 holoenzyme, the “Effect of mutation on expression of CYP3A4 holoenzyme (conclusion)” value is reported as “diminishes” and the “Stability of the protein (consistency of P450 measurements in multiple determinations)” value was “some instability”. The “Expression level of P450 holoenzyme relative to CYP3A4” value in the data set on CYP3A4 holoenzyme (E. coli expression, reduced CO difference spectra) was “less than 10%”. The “Testosterone hydroxylase activity compared with wild-type protein, in words” value with CYP3A4 [5] is recorded as “approximately half that of wild-type protein”. For the same substance, in the data set with CYP3A4 [6] (25 μM testosterone), the “Testosterone hydroxylase activity, 2β-OH” value is on record as <0.1, <0.1 nmol product/min/nmol protein; the “Testosterone hydroxylase activity, 6β-OH” value is 5.1^c nmol product/min/nmol protein; the “Testosterone hydroxylase activity, 15β-OH” value is reported as 0.1 nmol product/min/nmol protein. Besides, in the data set on CYP3A4 [6] (400 μM testosterone), the “Testosterone hydroxylase activity, 2β-OH” value is on record as 3.6 nmol product/min/nmol protein; the “Testosterone hydroxylase activity, 6β-OH” value is on record as 19.5^c nmol product/min/nmol protein; the “Testosterone hydroxylase activity, 15β-OH” value is on record as 0.7 nmol product/min/nmol protein.
